Assays:
Assay type in all cases: cell-based
[1] = tested on: M12 B lymphoma cells; experiment: Endogenous IL-4 production by transfected M12 B lymphoma cells (ELISA); conditions: M12 cells cotransfected with NFATp and c-Maf; supernatants at 72 hours
Experimental: FIG. 10 is a bar graph depicting the level of IL-4 (in pg/ml) in the supernatants of M12 B lymphoma cells transiently cotransfected with expression plasmids for NFATp, c-Maf and a pCI vector control (top bar) or expression plasmids for NFATp, c-Maf and NIP45 (bottom bar).
M12 cells were transiently transfected by electroporation as previously described (Ho, I. C. et al. (1996) Cell 85:973-983) by incubating 3×10^6 cells in 0.4 ml of PBS with 5 μg of each plasmid for 10 minutes at room temperature prior to electroporation at 975 μF, 280 V. Levels of IL-4 in the supernatants harvested 72 hours later were measured by a commercially available IL-4 ELISA (Pharmingen), performed according to the manufacturer's instructions except with modification as described (Ho, I. C. et al. (1996) supra). Four independent sets of transient transfections were done and assayed for secretion of IL-4 into the culture supernatant. For each set of transfections, inclusion of NIP45 led to a dramatic increase in IL-4 production.

[2] = tested on: IL-4 promoter; experiment: IL-4-CAT reporter assay in HepG2 cells; conditions: NIP45 together with NFATp and c-Maf
Experimental: FIG. 9 depicts CAT assay results (left) and a bar graph quantitating the relative fold induction of CAT activity (right) in HepG2 cells transfected with an IL-4-CAT reporter gene, construct (extending to −732 bp of the IL-4 promoter) and combinations of NFATp, NIP45 and/or c-Maf expression constructs, as indicated.
Although a reporter construct containing multiple copies of the NFAT binding site provides a sensitive method for measuring transactivation by NFAT and NIP45, it was determined if NIP45 was functional in the context of a native NFAT-dependent promoter. IL-4 expression is highly tissue specific and restricted to the Th2 subset of T cells and to mast cells. […] Thus, the IL-4 promoter is not active in the HepG2 cell line but can be activated by the introduction of NFATp and c-maf. In cotransfection experiments carried out as described above, HepG2 cells were transfected with an IL-4-CAT reporter construct (extending to −732 bp of the IL-4 promoter) and expression vectors or controls for NIP45, NFATp and c-Maf. The controls for NIP45 was a frame shift mutant at amino acid 13. Controls for NFATp and c-Maf were the empty expression vectors pREP4 and pMEX respectively (Ho, I. C. et al. (1996) Cell 85:973-983). The results of these experiments are shown in FIG. 9 (representative CAT assays and bar graphs are depicted as in FIG. 8).

[3] = tested on: 3X NFAT-CAT reporter; experiment: 3X NFAT-CAT reporter assay in HepG2 cells
Description: FIG. 8 depicts CAT assay results (left) and a bar graph quantitating the relative fold induction of CAT activity (right) in HepG2 cells transfected with a 3X NFAT-CAT reporter gene construct (containing three NFAT binding sites) and either a control expression plasmid or an NFAT family expression plasmid (NFATp, NFATc, NFAT3 or NFAT4), alone (−) or in combination with a NIP45 expression plasmid (^+).
To test for a functional role of NIP45 in NFAT-driven transcription, NIP45 was expressed at high levels in HepG2 cells. […] HepG2 cells were transfected with a 3X NFAT-CAT reporter from the IL-2 gene (Venkataraman, L. et al. (1994) Immunity 1:189-196) and control or expression plasmids for a NIP45 and NFAT family members (NFATp, NFATc, NFAT3, NFAT4). HepG2 cells were transfected by the DEAE-Dextran method as described in Hoey, T. et al. (1995) supra, and CAT assays were performed according to standard methodologies. One representative assay for each combination is shown adjacent to a bar graph representing relative CAT activity for each group. Fold induction was calculated by normalizing the CAT activity of cells transfected with the CAT reporter and each parental expression vector to one. Values represent the relative level of CAT expression above this control transfection. All transfections were performed at least three times with one representative autoradiograph shown.

B1: NIP45: 45 Kd NFAT interacting protein of 412 amino acids (SEQ ID NO: 2), expressed from a transfected expression plasmid (protein, listed as Mus musculus)
chain: MAEPLRGRGPRSRGGRGARRARGARGRCPRARQSPARLIPDTVLVDLVSDSDEEVLEVADPVEVPVARLPAPAKPEQDSDSDSEGAAEGPAGAPRTLVRRRRRRLLDPGEAPVVPVYSGKVQSSLNLIPDNSSLLKLCPSEPEDEADLTNSGSSPSEDDALPSGSPWRKKLRKKCEKEEKKMEEFPDQDISPLPQPSSRNKSRKHTEALQKLREVNKRLQDLRSCLSPKQHQSPALQSTDDEVVLVEGPVLPQSSRLFTLKIRCRADLVRLPVRMSEPLQNVVDHMANHLGVSPNRILLLFGESELSPTATPSTLKLGVADIIDCVVLASSSEATETSQELRLRVQGKEKHQMLEISLSPDSPLKVLMSHYEEAMGLSGHKLSFFFDGTKLSGKELPADLGLESGDLIEVWG
endogenous IL-4 production relative to cells that did not receive NIP45 [1]: 50-200 fold
increase in activity of the IL-4 promoter relative to NFATp and c-Maf alone [2]: 9 fold
increase in CAT activity over vector alone ([3]; NIP45 cotransfected with NFATp): 25-30 fold
increase in CAT activity relative to transfection with NFATp alone ([3]; NIP45 cotransfected with NFATp): 4-5 fold
CAT expression from 3X NFAT-CAT reporter ([3]; NIP45 transfected alone): did not lead to a significant increase

From US20090048117A1, “MODULATION OF IMMUNE SYSTEM FUNCTION BY MODULATION OF POLYPEPTIDE ARGININE METHYLTRANSFERASES” (President and Fellows of Harvard College, priority 2003, published 2009)
